The values that follow come from article PMC10576031 (Proceedings of the National Academy of Sciences of the …, 2023).

The target in experiment [1] is Human wild-type tau-K18 (residues 244 to 372), monomer (Homo sapiens, wild type, 2N4R (tau-F) …, UniProt P10636-8). The experiment in a line: far-Western, overlay or dot blot.
The target in another experiment is tau-K18 fibrils (Homo sapiens, wild type, 2N4R (tau-F) …, UniProt P10636-8). The experiment in a line: far-Western, overlay or dot blot.
tau-K18 fibrils, sequence (P10636 561-689): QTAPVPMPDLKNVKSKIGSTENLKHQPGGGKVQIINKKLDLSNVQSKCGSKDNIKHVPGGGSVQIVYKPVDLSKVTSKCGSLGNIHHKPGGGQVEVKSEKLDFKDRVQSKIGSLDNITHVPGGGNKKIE

Human wild-type tau-K18 (residues 244 to 372), monomer, sequence (P10636 561-689): as above

B1: VDW nanobody (first generation, scaffold 1) (VHH)
VHH: QVQLQESGGGLVQPGGSLRLSCAASGRTFSSYNMGWFRQAPGKGREFVASITSSGDKSDYTDSVKGRFTISRDNAKNTMYLQMNNLKPEDTATYYCARGSVWIWYEPVDWSEGTQVTVSS
With B1, the binding result (in experiment [1]; with tau-K18 fibrils) was “binds” throughout.
